Measured values: patent US20260167699A1 (Chugai, published 2026)

B1: GpH7-A5/GpH7-B3 variant Y300_01G/GpL16-k0 (antibody, human IgG1, kappa)
heavy 1: not shown
heavy 2: not shown
light: DIVMTQSPLSLPVTPGEPASISCQASESLVHSNRNTYLHWYLQKPGQSPQLLIYKVSNRFSGVPDRFSGSGSGTDFTLKISRVEAEDVGVYYCSQNTHVPPTFGQGTKVEIERTVAAPSVFIFPPSDEQLKSGTASVVCLLNNFYPREAKVQWKVDNALQSGNSQESVTEQDSKDSTYSLSSTLTLSKADYEKHKVYACEVTHQGLSSPVTKSFNRGEC
notes: He Ab; copies: 1 + 1 + 2
B2: GpH7-A5/GpH7-B3 variant S298_15Y/GpL16-k0 (antibody, human IgG1, kappa)
heavy 1: not shown
heavy 2: not shown
light: B1 light
notes: He Ab; copies: 1 + 1 + 2
B3: GpH7-A5/GpH7-B3 variant Y300_11K/GpL16-k0 (antibody, human IgG1, kappa)
heavy 1: not shown
heavy 2: not shown
light: B1 light
notes: He Ab; copies: 1 + 1 + 2
B4: GpH7-A5/GpH7-B3 variant Y296_09D/GpL16-k0 (antibody, human IgG1, kappa)
heavy 1: not shown
heavy 2: not shown
light: B1 light
notes: He Ab; copies: 1 + 1 + 2
B5: GpH7-A5/GpH7-B3 variant S324_03V/GpL16-k0 (antibody, human IgG1, kappa)
heavy 1: not shown
heavy 2: not shown
light: B1 light
notes: He Ab; copies: 1 + 1 + 2
B6: GpH7-A5/GpH7-B3 variant S298_18N/GpL16-k0 (antibody, human IgG1, kappa)
heavy 1: not shown
heavy 2: not shown
light: B1 light
notes: He Ab; copies: 1 + 1 + 2
B7: GpH7-A5/GpH7-B3 variant S324_10E/GpL16-k0 (antibody, human IgG1, kappa)
heavy 1: not shown
heavy 2: not shown
light: B1 light
notes: He Ab; copies: 1 + 1 + 2
B8: GpH7-A5/GpH7-B3 variant Y296_06M/GpL16-k0 (antibody, human IgG1, kappa)
heavy 1: not shown
heavy 2: not shown
light: B1 light
notes: He Ab; copies: 1 + 1 + 2
B9: GpH7-A5/GpH7-B3 variant S324_14T/GpL16-k0 (antibody, human IgG1, kappa)
heavy 1: not shown
heavy 2: not shown
light: B1 light
notes: He Ab; copies: 1 + 1 + 2
B10: GpH7-A5/GpH7-B3 variant Y296_02A/GpL16-k0 (antibody, human IgG1, kappa)
heavy 1: not shown
heavy 2: not shown
light: B1 light
notes: He Ab; copies: 1 + 1 + 2
B11: GpH7-A5/GpH7-B3 variant Y296_07I/GpL16-k0 (antibody, human IgG1, kappa)
heavy 1: not shown
heavy 2: not shown
light: B1 light
notes: He Ab; copies: 1 + 1 + 2
B12: GpH7-A5/GpH7-B3 variant S324_06M/GpL16-k0 (antibody, human IgG1, kappa)
heavy 1: not shown
heavy 2: not shown
light: B1 light
notes: He Ab; copies: 1 + 1 + 2
B13: GpH7-A5/GpH7-B3 variant S298_16H/GpL16-k0 (antibody, human IgG1, kappa)
heavy 1: not shown
heavy 2: not shown
light: B1 light
notes: He Ab; copies: 1 + 1 + 2
B14: GpH7-A5/GpH7-B3 variant S324_02A/GpL16-k0 (antibody, human IgG1, kappa)
heavy 1: not shown
heavy 2: not shown
light: B1 light
notes: He Ab; copies: 1 + 1 + 2
B15: GpH7-A5/GpH7-B3 variant Y300_02A/GpL16-k0 (antibody, human IgG1, kappa)
heavy 1: not shown
heavy 2: not shown
light: B1 light
notes: He Ab; copies: 1 + 1 + 2
B16: GpH7-A5/GpH7-B3 variant Y296_20W/GpL16-k0 (antibody, human IgG1, kappa)
heavy 1: not shown
heavy 2: not shown
light: B1 light
notes: He Ab; copies: 1 + 1 + 2
B17: GpH7-A5/GpH7-B3 variant S324_08L/GpL16-k0 (antibody, human IgG1, kappa)
heavy 1: not shown
heavy 2: not shown
light: B1 light
notes: He Ab; copies: 1 + 1 + 2
B18: GpH7-A5/GpH7-B3 variant S298_12R/GpL16-k0 (antibody, human IgG1, kappa)
heavy 1: not shown
heavy 2: not shown
light: B1 light
notes: He Ab; copies: 1 + 1 + 2
B19: GpH7-A5/GpH7-B3 variant Y296_11K/GpL16-k0 (antibody, human IgG1, kappa)
heavy 1: not shown
heavy 2: not shown
light: B1 light
notes: He Ab; copies: 1 + 1 + 2
B20: GpH7-A5/GpH7-B3 variant Y296_01G/GpL16-k0 (antibody, human IgG1, kappa)
heavy 1: not shown
heavy 2: not shown
light: B1 light
notes: He Ab; copies: 1 + 1 + 2
B21: GpH7-A5/GpH7-B3 variant Y300_03V/GpL16-k0 (antibody, human IgG1, kappa)
heavy 1: not shown
heavy 2: not shown
light: B1 light
notes: He Ab; copies: 1 + 1 + 2
B22: GpH7-A5/GpH7-B3 variant Y300_10E/GpL16-k0 (antibody, human IgG1, kappa)
heavy 1: not shown
heavy 2: not shown
light: B1 light
notes: He Ab; copies: 1 + 1 + 2
B23: GpH7-A5/GpH7-B3 variant Y296_16H/GpL16-k0 (antibody, human IgG1, kappa)
heavy 1: not shown
heavy 2: not shown
light: B1 light
notes: He Ab; copies: 1 + 1 + 2
B24: GpH7-A5/GpH7-B3 variant Y300_04F/GpL16-k0 (antibody, human IgG1, kappa)
heavy 1: not shown
heavy 2: not shown
light: B1 light
notes: He Ab; copies: 1 + 1 + 2
B25: GpH7-A5/GpH7-B3 variant S324_18N/GpL16-k0 (antibody, human IgG1, kappa)
heavy 1: not shown
heavy 2: not shown
light: B1 light
notes: He Ab; copies: 1 + 1 + 2
B26: GpH7-A5/GpH7-B3 variant Y296_12R/GpL16-k0 (antibody, human IgG1, kappa)
heavy 1: not shown
heavy 2: not shown
light: B1 light
notes: He Ab; copies: 1 + 1 + 2
B27: GpH7-A5/GpH7-B3 variant Y296_14T/GpL16-k0 (antibody, human IgG1, kappa)
heavy 1: not shown
heavy 2: not shown
light: B1 light
notes: He Ab; copies: 1 + 1 + 2
B28: GpH7-A5/GpH7-B3 variant S324_12R/GpL16-k0 (antibody, human IgG1, kappa)
heavy 1: not shown
heavy 2: not shown
light: B1 light
notes: He Ab; copies: 1 + 1 + 2

Target: T1, FcγRIIIa extracellular domain, C-terminal His tag (human, UniProt P08637 17-208)
T1 construct: extracellular domain; also called 3a
T1 sequence (P08637 other isoform, or with tags, fused parts or gaps): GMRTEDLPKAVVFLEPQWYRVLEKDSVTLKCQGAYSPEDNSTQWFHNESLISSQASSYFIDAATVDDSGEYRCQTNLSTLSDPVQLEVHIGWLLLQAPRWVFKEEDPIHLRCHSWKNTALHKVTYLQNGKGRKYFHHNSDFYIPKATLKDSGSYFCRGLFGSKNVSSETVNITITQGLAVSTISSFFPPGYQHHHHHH
Assay: SPR, binding activity relative to GpH7-A5/GpH7-B3/GpL16-k0 (=100)

Point of comparison: B15, “He/Con 3a” value 88.1%. Against it:
- B1 — higher, 88.6%
- B2 — lower, 80.6%
- B3 — lower, 63.7%
- B4 — higher, 89%
- B5 — higher, 101%
- B6 — lower, 51.4%
- B7 — higher, 108%
- B8 — lower, 74.6%
- B9 — higher, 112%
- B10 — lower, 66.3%
- B11 — lower, 75.8%
- B12 — higher, 124%
- B13 — lower, 71.9%
- B14 — higher, 113%
- B16 — higher, 127%
- B17 — higher, 95.5%
- B18 — lower, 52.1%
- B19 — lower, 53.3%
- B20 — lower, 51.3%
- B21 — lower, 83.8%
- B22 — higher, 113%
- B23 — lower, 69.1%
- B24 — higher, 100%
- B25 — higher, 103%
- B26 — lower, 66.5%
- B27 — lower, 60.7%
- B28 — higher, 98.1%
